Data as given in the nanobody polyreactivity screen of Harvey et al. (2022).

Experiment: yeast display, Sf9 membrane polyspecificity reagent, FACS + sequencing; frameworks hold sequencing errors
In short: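 Polyreactivity labels are assigned by the sorting gate from which each nanobody was recovered. The gates were low and high (top ~1%), set on anti-HA fluorescence for expression and streptavidin fluorescence for reagent binding. Before sorting, galactose-induced (36–48 hours) yeast display cells were stained for 1 hour at 4 °C with 10% biotinylated, detergent-solubilized Sf9 membrane reagent.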

| Sequence | polyreactivity (PSR sort gate) |
| --- | --- |
| QVQLVESGGGLVQAGGSLRLSCAASGGIFYYNAMGWYRQAPGKERELLAAITFSGGGTYYADSVKGRFTISRDNAKNTVYFQMNSLKPEDTAVNYCAAKFYRYAWFLGYDYWGQGTQVTVSS | high polyreactivity |
| QVQLVESGGGLVQAGGSLRLSCAASGGIFYYYTMGWYRQAPGKERELVAVISSSGSTYYADSVKGRFTISRDNAKNTVYLQMNSLKPEDTAVYYCNALGWYGDYDYWGQGTQVTVSS | low polyreactivity |
| QVQLVESGGGLVQAGGSLRLSCAASGGIISMYDIGWYRQAQGKERQLVAAISQSGGSTYYADYVKGRFTISRDNAKNTVYLQMNSLNPEVTGVYYCAADLYLTLIGFIFTGEEYWGQGTQGTVSS | low polyreactivity |
| QVQLVESGGGLVQAGGSLRLSCAASGGILDTYAMGWDRQAPGKERELVAAITSGGNTNYADSVKGRFTISRDNAKNTFYLQMNSLKPEDTAVYFCNVVSWYYFFRPWEYDYWGQGTQVTVSS | low polyreactivity |
| QVQLVESGGGLVQAGGSLRLSCAASGGILRDYAMGWSRQAPGKERELVAAISRGGRTNYADSVKGRFTISRDYSKNTVYLQLNSLKPEDTAVYYCAKRYARGENDYWGQGTQVNVSS | high polyreactivity |
| QVQLVESGGGLVQAGGSLRLSCAASGGISLYYVMGWYRQAPGKERELVADISADDSTNYADSVKGRFTISRDNAKNTVYLQMNSLKPEDTAVYYCAAVPGLFYLPYDYWGQGTQVTVSS | low polyreactivity |
| QVQLVESGGGLVQAGGSLRLSCAASGGISMDNVMGWYRQAPGKERELVAAISKSGGRTFYADSVKGRFTISRDNAKNTVYLQMNSLKPEDTAVYYCAKLYKSKPYWYEHEYWGQGTQVTVSS | high polyreactivity |
| QVQLVESGGGLVQAGGSLRLSCAASGGISYRYAMGWYRQAPGKERELVARISRGTGTHYADSVKGRFTISRDNAKNTVYLQMNSLTPEDTAVYYCAAESYRGYYLSLNYWGQGTQVTVSS | high polyreactivity |
| QVQLVESGGGLVQAGGSLRLSCAASGGIVSINAMGWYRQAPGKERELVAAIRWNSGRTYYADSVKGRFTISRDNAKNTVYIQMNSLKPEDTAVYYCAVRDYISWEDYYWGQGTQVTVSS | high polyreactivity |
| QVQLVESGGGLVQAGGSLRLSCAASGGIYLDYAMGWYRQAPGKERELVADINSGADTSYADSVKGRFTISRDNAKNTVYLQMNSLKPEDTAVYYCADDIYVFNGQVYSYGYGYWGQGTQVTVSS | low polyreactivity |
| QVQLVESGGGLVQAGGSLRLSCAASGGIYYYAMGWDRQAPGKERELVAAISSGGGNTNYADSVKGRFTISRDNAKNTVYLQMNSLKPVDTAVYYCAAEHPVTYRTSKFDYWGQGTQVTVSS | low polyreactivity |
| QVQLVESGGGLVQAGGSLRLSCAASGGIYYYAMGWYRPAPGKERELVSAISSGGGNTNYADSVKGRFTISRDNAKNTVYLQMISLKPEDTAVYYCYADRAVVLSTTVWGEYDYWGQGTQVNVSS | low polyreactivity |
| QVQLVESGGGLVQAGGSLRLSCAASGGIYYYAMGWYRQAPGKERELVAAISSGGGNTNYADSVKGRFTLSRDNAKNTVYLQMNSLKPEDTAVYYCATDGFIPTYSYTEIGYDYWGQGTQVTVSS | low polyreactivity |
| QVQLVESGGGLVQAGGSLRLSCAASGGLFIRYGMGWYRPAPGKERELVAGIDSGGGTNYADSVKGRFTISRDNAKNTVYLQMNSLKPEDTAVYYCARRQGYGFLYGRPYGYWGQGTQVTVSS | low polyreactivity |
| QVQLVESGGGLVQAGGSLRLSCAASGGMGWYRQAPGKERELVATISSVGSTNYADSVKGRFTISRDNAKNTVYLQMNSLKPEDTAVYYCNATGVQYFLYGYWGQGTQVTVSS | low polyreactivity |
| QVQLVESGGGLVQAGGSLRLSCAASGGNFKQYAMGWYRQAPGKERELVAAISRRGGSTYYADSVKGRFTISRDNAKNTVYLQMNSLKPEDTAVYYCAAPGPTQSTQRGGYWGQGTQVTVSS | high polyreactivity |
| QVQLVESGGGLVQAGGSLRLSCAASGGPFKRNAMGWSRQAPGKERELVAAISTSGATTYYADSVKGRFTISRDTAKNTVYLQMNSLKPEDTAVYYCAARIRGYVYKGMNYWGQGTQVTVSS | high polyreactivity |
